Assay results reported in US20130202591A1 (ANAPTYSBIO, published 2013).

B1: MP4-9 (antibody, V domains shown)
VH: EVQLVESGGGLVQPGGSLRLSCAASGFTFSNYWMSWVRQAPGKGLEWVAAIKQDGSEKYYVDSVKGRFTISRDNAKNSLYLQMNSLRAEDTAVYYCARDYYDILTDYYIHYWYFDLWGRGTLVTVSS
VL: not shown
notes: Captured by anti-human Fc
B2: 847/842 (antibody, V domains shown)
VH: EVQLVESGGGLVQPGGSLRLSCAASGFTFSSHWMSWVRQAPGKGLEWVASIKEDGSEKYYVDSVKGRFTISRDNAKNSLYLQMNSLRAEDTAVYYCARDYYDILTDYYIHYWYFDLWGRGTLVTVSS
VL: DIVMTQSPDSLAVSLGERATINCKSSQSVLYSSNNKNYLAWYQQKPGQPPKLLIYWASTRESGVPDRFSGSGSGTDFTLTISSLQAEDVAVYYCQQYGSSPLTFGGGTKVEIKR
notes: Captured by anti-human Fc
B3: 1134/773 (antibody, V domains shown)
VH: EVQLVESGGGLVQPGGSLRLSCAASGFTFSSYWMSWVRQTPGKGLEWVASIKQDGSEKYYVDSVKVRFTISRDNAKNSLYLQMNSLRAEDTAVYYCARDYYDILTDYYIHYWYFDLWGRGTLVTVSS
VL: not shown
notes: Captured by anti-human Fc
B4: 1146/773 (antibody, V domains shown)
VH: EVQLVESGGGLVQPGGSLRLSCAASGFTFSNYWMDWVRQAPGKGLEWVASIREDGSEKYYVGSVKGRFTISRDNAKNSLYLQMNSLRVEDTAVYYCVRDYYDILTDYYIHYWYFDLWGRGTLVTVSS
VL: not shown
notes: Captured by anti-human Fc
B5: MP4-8 (antibody, V domains shown)
VH: EVQLVESGGGLVQPGGSLRLSCAASGFTFSNYWMSWVRQAPGKGLEWVANINQDGSEKYYVDSVKGRFTISRDNAKNSLYLQMNSLRAEDTAVYYCVRDYYDILTDYYIHYWYFDLWGRGTLVTVSS
VL: not shown
notes: Captured by anti-human Fc
B6: 846/773 (antibody, V domains shown)
VH: EVQLVESGGGLVQPGGSLRLSCAASGFTFSNSWMTWVRQAPGKGLEWVASINHDGSEKHYVGSVKGRFTISRDNAKNSLYLQMNSLRVEDTAVYYCARDYYDILTDYYIHYWYFDLWGRGTLVTVSS
VL: not shown
notes: Captured by anti-human Fc
B7: 1143/773 (antibody, V domains shown)
VH: EVQLVESGGGLVQPGGSLRLSCAASGFTFSNHWMNWVRQAPGKGLEWVAGIREDGSEKYYVDSVKGRFTISRDNAKNSLYLQMNSLRAEDTAVYYCARDYYDILTDYYIHYWYFDLWGRGTLVTVSS
VL: not shown
notes: Captured by anti-human Fc
B8: 1147/773 (antibody, V domains shown)
VH: EVQLVESGGGLVQPGGSLRLSCAASGFTFSSYWMDWVRQAPGKGLEWVASIREDGSEKYYVDSVKGRFTISRDNAKNSLYLQMNSLRAEDTAVYYCARDYYDILTDYYIHYWYFDLWGRGTLVTVSS
VL: not shown
notes: Captured by anti-human Fc
B9: 1142/773 (antibody, V domains shown)
VH: EVQLVESGGGLVQPGGSLRLSCAASGFTFSDYWMDWVRQAPGKGLEWVASIREDGSEKYYVGSVKGRFTISRDNAKNSLYLQMNSLRVEDTAVYYCVRDYYDILTDYYIHYWYFDLWGRGTLVTVSS
VL: not shown
notes: Captured by anti-human Fc
B10: MP4-14 (antibody, V domains shown)
VH: EVQLVESGGGLVQPGGSLRLSCAASGFTFSSYWMSWVRQAPGKGLEWVAAINQDGSEKYYVDSVKGRFTISRDNAKNSLYLQMNSLRAEDTAVYYCARDYYDILTDYYIHYWYFDLWGRGTLVTVSS
VL: not shown
notes: Captured by anti-human Fc
B11: MP4-2 (antibody, V domains shown)
VH: EVQLVESGGGLVQPGGSLRLSCAASGFTFSSYWMSWVRQAPGKGLEWVAAINQDGSEKYYVGSVKGRFTISRDNAKNSLYLQMNSLRAEDTAVYYCVRDYYDILTDYYIHYWYFDLWGRGTLVTVSS
VL: not shown
notes: Captured by anti-human Fc
B12: 1144/773 (antibody, V domains shown)
VH: EVQLVESGGGLVQPGGSLRLSCAASGFTFSNHWMNWVRQAPGKGLEWVASIREDGSEKYYVDSVKGRFTISRDNAKNSLYLQMNSLRAEDTAVYYCARDYYDILTDYYIHYWYFDLWGRGTLVTVSS
VL: not shown
notes: Captured by anti-human Fc
B13: MP4-20 (antibody, V domains shown)
VH: EVQLVESGGGLVQPGGSLRLSCAASGFTFSNYWMSWVRQAPGKGLEWVAAIKQDGSEKYYVGSVKGRFTISRDNAKNSLYLQMNSLRAEDTAVYYCARDYYDILTDYYIHYWYFDLWGRGTLVTVSS
VL: not shown
notes: Captured by anti-human Fc
B14: MP4-16 (antibody, V domains shown)
VH: EVQLVESGGGLVQPGGSLRLSCAASGFTFSNYWMSWVRQAPGKGLEWVAAINQDGSEKYYVGSVKGRFTISRDNAKNSLYLQMNSLRAEDTAVYYCARDYYDILTDYYIHYWYFDLWGRGTLVTVSS
VL: not shown
notes: Captured by anti-human Fc
B15: MP4-6 (antibody, V domains shown)
VH: EVQLVESGGGLVQPGGSLRLSCAASGFTFSSYWMSWVRQAPGKGLEWVANINQDGSEKYYVGSVKGRFTISRDNAKNSLYLQMNSLRAEDTAVYYCVRDYYDILTDYYIHYWYFDLWGRGTLVTVSS
VL: not shown
notes: Captured by anti-human Fc
B16: MP4-11 (antibody, V domains shown)
VH: EVQLVESGGGLVQPGGSLRLSCAASGFTFSNYWMSWVRQAPGKGLEWVANIKQDGSEKYYVDSVKGRFTISRDNAKNSLYLQMNSLRAEDTAVYYCVRDYYDILTDYYIHYWYFDLWGRGTLVTVSS
VL: not shown
notes: Captured by anti-human Fc
B17: MP4-17 (antibody, V domains shown)
VH: EVQLVESGGGLVQPGGSLRLSCAASGFTFSNYWMSWVRQAPGKGLEWVANIKQDGSEKYYVDSVKGRFTISRDNAKNSLYLQMNSLRAEDTAVYYCARDYYDILTDYYIHYWYFDLWGRGTLVTVSS
VL: not shown
notes: Captured by anti-human Fc
B18: 1139/773 (antibody, V domains shown)
VH: EVQLVESGGGLVQPGGSLRLSCAASGFTFSSHWMSWVRQTPGKGLEWVASIKEDGSEKYYVDSVKGRFTISRDNAKNSLYLQMNSLRAEDTAVYYCARDYYDILTDYYIHYWYFDLWGRGTLVTVSS
VL: not shown
notes: Captured by anti-human Fc
B19: MP4-4 (antibody, V domains shown)
VH: EVQLVESGGGLVQPGGSLRLSCAASGFTFSNYWMNWVRQAPGKGLEWVAAIKQDGSEKYYVGSVKGRFTISRDNAKNSLYLQMNSLRAEDTAVYYCARDYYDILTDYYIHYWYFDLWGRGTLVTVSS
VL: not shown
notes: Captured by anti-human Fc
B20: 1153/773 (antibody, V domains shown)
VH: EVQLVESGGGLVQPGGSLRLSCAASGFTFSSHWMSWVRQAPGKGLEWVASIKEDGSEKYYVDSVKVRFTISRDNAKNSLYLQMNSLRAEDTAVYYCARDYYDILTDYYIHYWYFDLWGRGTLVTVSS
VL: not shown
notes: Captured by anti-human Fc
B21: 1129/773 (antibody, V domains shown)
VH: EVQLVESGGGLVQPGGSLRLSCAASGFTFSSYWMSWVRQAPGKGLEWVANIKQDGSEKYYVDSVKVRFTISRDNAKNSLYLQMNSLRAEDTAVYYCARDYYDILTDYYIHYWYFDLWGRGTLVTVSS
VL: not shown
notes: Captured by anti-human Fc
B22: MP4-7 (antibody, V domains shown)
VH: EVQLVESGGGLVQPGGSLRLSCAASGFTFSNYWMSWVRQAPGKGLEWVANINQDGSEKYYVGSVKGRFTISRDNAKNSLYLQMNSLRAEDTAVYYCVRDYYDILTDYYIHYWYFDLWGRGTLVTVSS
VL: not shown
notes: Captured by anti-human Fc
B23: 1102/773 (antibody, V domains shown)
VH: EVQLVESGGGLVQPGGSLRLSCAASGFTFSSYWMDWVRQAPGKGLEWVANIREDGSEKYYVDSVKGRFTISRDNAKNSLYLQMNSLRAEDTAVYYCARDYYDILTDYYIHYWYFDLWGRGTLVTVSS
VL: not shown
notes: Captured by anti-human Fc
B24: 1137/773 (antibody, V domains shown)
VH: EVQLVESGGGLVQPGGSLRLSCAASGFTFSSYWMSWVRQTPGKGLEWVANIKQDGSEKYYVDSVKGRFTISRDNAKNSLYLQMNSLRAEDTAVYYCARDYYDILTDYYIHYWYFDLWGRGTLVTVSS
VL: not shown
notes: Captured by anti-human Fc
B25: 878/772 (antibody, V domains shown)
VH: EVQLVESGGGLVQPGGSLRLSCAASGFTFSDYWMDWVRQAPGKGLEWVANIREDGSEKYYVDSVKGRFTISRDNAKNSLYLQMNSLRAEDTAVYYCARDYYDILTDYYIHYWYFDLWGRGTLVTVSS
VL: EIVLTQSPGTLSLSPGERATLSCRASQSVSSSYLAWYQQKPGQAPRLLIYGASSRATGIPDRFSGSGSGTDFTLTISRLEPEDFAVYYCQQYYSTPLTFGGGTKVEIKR
notes: Captured by anti-human Fc
B26: 847/772 (antibody, V domains shown)
VH: EVQLVESGGGLVQPGGSLRLSCAASGFTFSSHWMSWVRQAPGKGLEWVASIKEDGSEKYYVDSVKGRFTISRDNAKNSLYLQMNSLRAEDTAVYYCARDYYDILTDYYIHYWYFDLWGRGTLVTVSS
VL: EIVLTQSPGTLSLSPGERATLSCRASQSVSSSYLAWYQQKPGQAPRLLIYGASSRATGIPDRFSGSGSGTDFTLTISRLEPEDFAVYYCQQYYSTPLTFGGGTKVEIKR
notes: Captured by anti-human Fc
B27: MP4-5 (antibody, V domains shown)
VH: EVQLVESGGGLVQPGGSLRLSCAASGFTFSNYWMNWVRQAPGKGLEWVAAIKQDGSEKYYVGSVKGRFTISRDNAKNSLYLQMNSLRAEDTAVYYCVRDYYDILTDYYIHYWYFDLWGRGTLVTVSS
VL: not shown
notes: Captured by anti-human Fc
B28: MP4-21 (antibody, V domains shown)
VH: EVQLVESGGGLVQPGGSLRLSCAASGFTFSNYWMNWVRQAPGKGLEWVANINQDGSEKYYVGSVKGRFTISRDNAKNSLYLQMNSLRAEDTAVYYCARDYYDILTDYYIHYWYFDLWGRGTLVTVSS
VL: not shown
notes: Captured by anti-human Fc
B29: MP4-22 (antibody, V domains shown)
VH: EVQLVESGGGLVQPGGSLRLSCAASGFTFSNYWMSWVRQAPGKGLEWVAAIKQDGSEKYYVDSVKGRFTISRDNAKNSLYLQMNSLRAEDTAVYYCVRDYYDILTDYYIHYWYFDLWGRGTLVTVSS
VL: not shown
notes: Captured by anti-human Fc
B30: MP4-10 (antibody, V domains shown)
VH: EVQLVESGGGLVQPGGSLRLSCAASGFTFSNYWMSWVRQAPGKGLEWVAAIKQDGSEKYYVGSVKGRFTISRDNAKNSLYLQMNSLRAEDTAVYYCVRDYYDILTDYYIHYWYFDLWGRGTLVTVSS
VL: not shown
notes: Captured by anti-human Fc
B31: 887/772 (antibody, V domains shown)
VH: EVQLVESGGGLVQPGGSLRLSCAASGFTFSDYWMDWVRQAPGKGLEWVASIREDGSEKYYVDSVKGRFTISRDNAKNSLYLQMNSLRAEDTAVYYCARDYYDILTDYYIHYWYFDLWGRGTLVTVSS
VL: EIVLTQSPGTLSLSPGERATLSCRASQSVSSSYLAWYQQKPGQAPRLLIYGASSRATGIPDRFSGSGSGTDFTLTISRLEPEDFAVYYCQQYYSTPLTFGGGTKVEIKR
notes: Captured by anti-human Fc
B32: MP4-23 (antibody, V domains shown)
VH: EVQLVESGGGLVQPGGSLRLSCAASGFTFSSYWMNWVRQAPGKGLEWVAAIKQDGSEKYYVGSVKGRFTISRDNAKNSLYLQMNSLRAEDTAVYYCVRDYYDILTDYYIHYWYFDLWGRGTLVTVSS
VL: not shown
notes: Captured by anti-human Fc

Biological target: T1, human IL-17 (human, UniProt Q16552 24-155)
T1 construct: also called hIL-17; IL-17A
T1 sequence (Q16552 24-155 limits assumed): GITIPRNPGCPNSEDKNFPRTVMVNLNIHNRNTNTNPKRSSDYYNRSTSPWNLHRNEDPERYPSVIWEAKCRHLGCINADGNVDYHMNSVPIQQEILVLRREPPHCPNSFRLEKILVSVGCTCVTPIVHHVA
Experiment: SPR (BIACORE), antibody captured by anti-human Fc, antigen in flow; grade: ++ strong binding, + binding, +/- close to background;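 note: antigen injected at two-fold dilutions from 50 nM over captured antibody at 30 µL/min, dissociation followed for 10 min, kinetics fitted with a 1:1 mass-transport model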
Excerpt: BIACORE T100™ is used to determine antibody-antigen binding kinetics and affinity. The technology is based on surface plasmon resonance (SPR), an optical phenomenon that enables detection of label-free interactions in real time within a dextran biosensor matrix. It is therefore suited for measuring rate constants of association (kₒₙ) as well as dissociation (koff). All reagents and materials were purchased from GE Healthcare (Buckinghamshire, United Kingdom). […] 1×HBS-EP+ buffer (of 0.01M HEPES, 0.15M NaCl, 3 mM EDTA, 0.05% Polysorbate, pH 7.6) was used to reconstitute antigen at various concentrations (starting at 50 nM and using two-fold serial dilutions for each concentration). 210 μL of each antigen concentration was injected over captured antibody at a flow rate of 30 μL/min, then allowed to dissociate for 10 minutes. Surface was regenerated with 60 μL of 3M MgCl₂ after each cycle to establish baseline. Association and dissociation kinetic constants (kₐ and kd) were evaluated with “1:1 with mass transport” binding model in the BIACORE™ T100 Evaluation Software. The degree of binding for the BIACORE™ assay was measured as “++” (strong binding), “+” (binding), or “+/−” (close to background).

binding result	Binder
binds	B1
binds	B2
binds	B3
binds	B4
binds	B5
binds	B6
binds	B7
binds	B8
binds	B9
binds	B10
binds	B11
binds	B12
binds	B13
binds	B14
binds	B15
binds	B16

binding result	Binder
binds	B17
binds	B18
binds	B19
binds	B20
binds	B21
binds	B22
binds	B23
binds	B24
binds	B25
binds	B26
binds	B27
binds	B28
binds	B29
binds	B30
binds	B31
binds	B32
